Test results from the supplement of paper PMC5998384.

Assays:
HeLa Kyoto [1] = experiment: solubility in G1/S (NP-40 vs SDS abundance) (log2 ratio); higher = more soluble; conditions: cell cycle stage: G1/S
HeLa Kyoto [2] = experiment: melting temperature (median over replicates), in situ; higher = more thermally stable
HeLa Kyoto [3] = experiment: solubility change mitosis vs G1/S (difference of NP-40 vs SDS log2 ratios) (log2 ratio difference); higher = more soluble in mitosis
HeLa Kyoto [4] = experiment: thermal stability score vs G1/S (z-score of summed log2 fold changes over temperatures); higher = more thermally stable than in G1/S
[5] = cell cycle stage: early G1 (4.5 h after nocodazole release)
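Throughout, for melting temperature (median over replicates), in situ: HeLa Kyoto cells synchronized by double thymidine or nocodazole block, proteins quantified by TMT10plex mass spectrometry, three independent biological replicates.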
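Throughout, for solubility change mitosis vs G1/S (difference of NP-40 vs SDS log2 ratios): synchronized HeLa Kyoto cells (double thymidine block for G1/S, nocodazole release for mitosis), protein amounts in NP-40 versus SDS lysates quantified by mass spectrometry, three biological replicates.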
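Throughout, for solubility in G1/S (NP-40 vs SDS abundance): HeLa Kyoto cells arrested at G1/S by double thymidine block, proteins quantified by TMT10plex mass spectrometry in mild NP-40 versus SDS extracts, three biological replicates.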
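Throughout, for thermal stability score vs G1/S (z-score of summed log2 fold changes over temperatures): synchronized HeLa Kyoto cells, proteins quantified by TMT10plex mass spectrometry, three biological replicates, mitosis taken 0.5 h after nocodazole release, G1/S directly after double thymidine block.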

Substance	solubility in G1/S (log2) (HeLa Kyoto [1])	melting temperature (HeLa Kyoto [2]; cell cycle stage: G1/S)	melting temperature (HeLa Kyoto [2]; cell cycle stage: mitosis)	solubility change mitosis (log2) (HeLa Kyoto [3])	thermal stability score (HeLa Kyoto [4]; [5])	thermal stability score (HeLa Kyoto [4]; cell cycle stage: mitosis)
MEAERGPERRPAERSSPGQTPEEGAQALAEFAALHGPALRASGVPERYWGRLLHKLEHEVFDAGEVFGIMQVEEVEEEEDEAAREVRKQQPNPGNELCYKVIVTRESGLQAAHPNSIFLIDHAWTCRVEHARQQLQQVPGLLHRMANLMGIEFHGELPSTEAVALVLEEMWKFNQTYQLAHGTAEEKMPVWYIMDEFGSRIQHADVPSFATAPFFYMPQQVAYTLLWPLRDLDTGEEVTRDFAYGETDPLIRKCMLLPWAPTDMLDLSSCTPEPPAEHYQAILEENKEKLPLDINPVVHPHGHIFKVYTDVQQVASSLTHPRFTLTQSEADADILFNFSHFKDYRKLSQERPGVLLNQFPCENLLTVKDCLASIARRAGGPEGPPWLPRTFNLRTELPQFVSYFQQRERWGEDNHWICKPWNLARSLDTHVTKSLHSIIRHRESTPKVVSKYIESPVLFLREDVGKVKFDIRYIVLLRSVRPLRLFVYDVFWLRFSNRAFALNDLDDYEKHFTVMNYDPDVVLKQVHCEEFIPEFEKQYPEFPWTDVQAEIFRAFTELFQVACAKPPPLGLCDYPSSRAMYAVDLMLKWDNGPDGRRVMQPQILEVNFNPDCERACRYHPTFFNDVFSTLFLDQPGGCHVTCLV [TTLL12]	0.0605	47.6 °C	48.4 °C	-0.125	2	3.92
MEASWRQVAGGRGRSRGRATAAPSGNGVHLRGAGGGREKGSVGAVPSGTSPGGVATTAAAGSRHSPAGSQALQTTAASELMSQKKFEEIKKANQAAARKLVEEQFSSSSEEGDEDFEGKQGKILANTFITYTTQTDGDTRELERTKQYVNEAFQAGAMTCLICIASVKRNQAVWSCSGCFCIFHMPCIQKWAKDSQFLVSSVTDDDFGKKDCPWPCPKCRFEYKRSETPSRYYCYCGKVEDPPLDPWLVPHSCGQVCEREFKPPCGHKCLLLCHPGPCPPCPKMVTTTCYCKKAKPIPRRCSAKEWSCQLPCGQKLLCGQHKCENPCHAGSCQPCPRVSRQKCVCGKKVAERSCASPLWHCDQVCGKTLPCGNHTCEQVCHVGACGECPRSGKRFCPCQKSKFSLPCTEDVPTCGDSCDKVLECGIHRCSQRCHRGPCETCRQEVEKHCRCGKHTKRMPCHKPYLCETKCVKMRDCQKHQCRRKCCPGNCPPCDQNCGRTLGCRNHKCPSVCHRGSCYPCPETVDVKCNCGNTKVTVPCGRERTTRPPKCKEQCSRPPTCHHTSQEKHRCHFGSCPPCHQPCQKVLEKCGHLCPAPCHDQALIKQTGRHQPTGPWEQPSEPAFIQTALPCPPCQVPIPMECLGKHEVSPLPCHAVGPYSCKRVCGRILDCQNHTCMKECHKVTKTDGCTGKNKAGPECLHCEEGCSKSRPLGCLHPCILRCHPGECPPCVQMLRIKCHCKITSLYVECRKITTADVNEKNLLSCCKNQCPKELPCGHRCKEMCHPGECPFNCNQKVKLRCPCKRIKKELQCNKVRENQVSIECDTTCKEMKRKASEIKEAEAKAALEEEKRRQQAELEAFENRLKGRRKKNRKRDEVAVELSLWQKHKYYLISVCGVVVVVFAWYITHDVN [NFXL1]	-0.509	50.2 °C	50.5 °C	0.0441	1.02	1.56
MEATGTWALLLALALLLLLTLALSGTRARGHLPPGPTPLPLLGNLLQLRPGALYSGLMRLSKKYGPVFTIYLGPWRPVVVLVGQEAVREALGGQAEEFSGRGTVAMLEGTFDGHGVFFSNGERWRQLRKFTMLALRDLGMGKREGEELIQAEARCLVETFQGTEGRPFDPSLLLAQATSNVVCSLLFGLRFSYEDKEFQAVVRAAGGTLLGVSSQGGQTYEMFSWFLRPLPGPHKQLLHHVSTLAAFTVRQVQQHQGNLDASGPARDLVDAFLLKMAQEEQNPGTEFTNKNMLMTVIYLLFAGTMTVSTTVGYTLLLLMKYPHVQKWVREELNRELGAGQAPSLGDRTRLPYTDAVLHEAQRLLALVPMGIPRTLMRTTRFRGYTLPQGTEVFPLLGSILHDPNIFKHPEEFNPDRFLDADGRFRKHEAFLPFSLGKRVCLGEGLAKAELFLFFTTILQAFSLESPCPPDTLSLKPTVSGLFNIPPAFQLQVRPTDLHSTTQTR [CYP2S1]	-0.0959	57.4 °C	57.4 °C	-0.159	-1.27	0.83
MECLRSLPCLLPRAMRLPRRTLCALALDVTSVGPPVAACGRRANLIGRSRAAQLCGPDRLRVAGEVHRFRTSDVSQATLASVAPVFTVTKFDKQGNVTSFERKKTELYQELGLQARDLRFQHVMSITVRNNRIIMRMEYLKAVITPECLLILDYRNLNLEQWLFRELPSQLSGEGQLVTYPLPFEFRAIEALLQYWINTLQGKLSILQPLILETLDALVDPKHSSVDRSKLHILLQNGKSLSELETDIKIFKESILEILDEEELLEELCVSKWSDPQVFEKSSAGIDHAEEMELLLENYYRLADDLSNAARELRVLIDDSQSIIFINLDSHRNVMMRLNLQLTMGTFSLSLFGLMGVAFGMNLESSLEEDHRIFWLITGIMFMGSGLIWRRLLSFLGRQLEAPLPPMMASLPKKTLLADRSMELKNSLRLDGLGSGRSILTNR [MRS2]	-0.297	55.4 °C	54.5 °C	0.124	-1.88	-2.56
MED14	-0.117	48.7 °C	50.1 °C	-0.0671	0.0685	1.11
MEDFARGAASPGPSRPGLVPVSIIGAEDEDFENELETNSEEQNSQFQSLEQVKRRPAHLMALLQHVALQFEPGPLLCCLHADMLGSLGPKEAKKAFLDFYHSFLEKTAVLRVPVPPNVAFELDRTRADLISEDVQRRFVQEVVQSQQVAVGRQLEDFRSKRLMGMTPWEQELAQLEAWVGRDRASYEARERHVAERLLMHLEEMQHTISTDEEKSAAVVNAIGLYMRHLGVRTKSGDKKSGRNFFRKKVMGNRRSDEPAKTKKGLSSILDAARWNRGEPQVPDFRHLKAEVDAEKPGATDRKGGVGMPSRDRNIGAPGQDTPGVSLHPLSLDSPDREPGADAPLELGDSSPQGPMSLESLAPPESTDEGAETESPEPGDEGEPGRSGLELEPEEPPGWRELVPPDTLHSLPKSQVKRQEVISELLVTEAAHVRMLRVLHDLFFQPMAECLFFPLEELQNIFPSLDELIEVHSLFLDRLMKRRQESGYLIEEIGDVLLARFDGAEGSWFQKISSRFCSRQSFALEQLKAKQRKDPRFCAFVQEAESRPRCRRLQLKDMIPTEMQRLTKYPLLLQSIGQNTEEPTEREKVELAAECCREILHHVNQAVRDMEDLLRLKDYQRRLDLSHLRQSSDPMLSEFKNLDITKKKLVHEGPLTWRVTKDKAVEVHVLLLDDLLLLLQRQDERLLLKSHSRTLTPTPDGKTMLRPVLRLTSAMTREVATDHKAFYVLFTWDQEAQIYELVAQTVSERKNWCALITETAGSLKVPAPASRPKPRPSPSSTREPLLSSSENGNGGRETSPADARTERILSDLLPFCRPGPEGQLAATALRKVLSLKQLLFPAEEDNGAGPPRDGDGVPGGGPLSPARTQEIQENLLSLEETMKQLEELEEEFCRLRPLLSQLGGNSVPQPGCT [ARHGEF1]	0.0626	49.2 °C	49.1 °C	-0.134	1.08	1.58
MEDSEALGFEHMGLDPRLLQAVTDLGWSRPTLIQEKAIPLALEGKDLLARARTGSGKTAAYAIPMLQLLLHRKATGPVVEQAVRGLVLVPTKELARQAQSMIQQLATYCARDVRVANVSAAEDSVSQRAVLMEKPDVVVGTPSRILSHLQQDSLKLRDSLELLVVDEADLLFSFGFEEELKSLLCHLPRIYQAFLMSATFNEDVQALKELILHNPVTLKLQESQLPGPDQLQQFQVVCETEEDKFLLLYALLKLSLIRGKSLLFVNTLERSYRLRLFLEQFSIPTCVLNGELPLRSRCHIISQFNQGFYDCVIATDAEVLGAPVKGKRRGRGPKGDKASDPEAGVARGIDFHHVSAVLNFDLPPTPEAYIHRAGRTARANNPGIVLTFVLPTEQFHLGKIEELLSGENRGPILLPYQFRMEEIEGFRYRCRDAMRSVTKQAIREARLKEIKEELLHSEKLKTYFEDNPRDLQLLRHDLPLHPAVVKPHLGHVPDYLVPPALRGLVRPHKKRKKLSSSCRKAKRAKSQNPLRSFKHKGKKFRPTAKPS [DDX56]	-1.13	51.8 °C	52 °C	0.785	0.609	0.497
MEDVEARFAHLLQPIRDLTKNWEVDVAAQLGEYLEELDQICISFDEGKTTMNFIEAALLIQGSACVYSKKVEYLYSLVYQALDFISGKRRAKQLSSVQEDRANGVASSGVPQEAENEFLSLDDFPDSRTNVDLKNDQTPSEVLIIPLLPMALVAPDEMEKNNNPLYSRQGEVLASRKDFRMNTCVPHPRGAFMLEPEGMSPMEPAGVSPMPGTQKDTGRTEEQPMEVSVCRSPVPALGFSQEPGPSPEGPMPLGGGEDEDAEEAVELPEASAPKAALEPKESRSPQQSAALPRRYMLREREGAPEPASCVKETPDPWQSLDPFDSLESKPFKKGRPYSVPPCVEEALGQKRKRKGAAKLQDFHQWYLAAYADHADSRRLRRKGPSFADMEVLYWTHVKEQLETLRKLQRREVAEQWLRPAEEDHLEDSLEDLGAADDFLEPEEYMEPEGADPREAADLDAVPMSLSYEELVRRNVELFIATSQKFVQETELSQRIRDWEDTVQPLLQEQEQHVPFDIHTYGDQLVSRFPQLNEWCPFAELVAGQPAFEVCRSMLASLQLANDYTVEITQQPGLEMAVDTMSLRLLTHQRAHKRFQTYAAPSMAQP [NCAPH2]	0.197	48.5 °C	48.6 °C	0.0239	-0.208	-0.203
MEEDTDYRIRFSSLCFFNDHVGFHGTIKSSPSDFIVIEIDEQGQLVNKTIDEPIFKISEIQLEPNNFPKKPKLDLQNLSLEDGRNQEVHTLIKYTDGDQNHQSGSEKEDTIVDGTSKCEEKADVLSSFLDEKTHELLNNFACDVREKWLSKTELIGLPPEFSIGRILDKNQRASLHSAIRQKFPFLVTVGKNSEIVVKPNLEYKELCHLVSEEEAFDFFKYLDAKKENSKFTFKPDTNKDHRKAVHHFVNKKFGNLVETKSFSKMNCSAGNPNVVVTVRFREKAHKRGKRPLSECQEGKVIYTAFTLRKENLEMFEAIGFLAIKLGVIPSDFSYAGLKDKKAITYQAMVVRKVTPERLKNIEKEIEKKRMNVFNIRSVDDSLRLGQLKGNHFDIVIRNLKKQINDSANLRERIMEAIENVKKKGFVNYYGPQRFGKGRKVHTDQIGLALLKNEMMKAIKLFLTPEDLDDPVNRAKKYFLQTEDAKGTLSLMPEFKVRERALLEALHRFGMTEEGCIQAWFSLPHSMRIFYVHAYTSKIWNEAVSYRLETYGARVVQGDLVCLDEDIDDENFPNSKIHLVTEEEGSANMYAIHQVVLPVLGYNIQYPKNKVGQWYHDILSRDGLQTCRFKVPTLKLNIPGCYRQILKHPCNLSYQLMEDHDIDVKTKGSHIDETALSLLISFDLDASCYATVCLKEIMKHDV [PUS7L]	-0.0836	51 °C	51.9 °C	-0.137	0.23	0.98
MEEGGNLGGLIKMVHLLVLSGAWGMQMWVTFVSGFLLFRSLPRHTFGLVQSKLFPFYFHISMGCAFINLCILASQHAWAQLTFWEASQLYLLFLSLTLATVNARWLEPRTTAAMWALQTVEKERGLGGEVPGSHQGPDPYRQLREKDPKYSALRQNFFRYHGLSSLCNLGCVLSNGLCLAGLALEIRSL [TMEM205]	0.0662	–	55.9 °C	-0.294	-2.96	-1.84
